# From ChEMBL document CHEMBL1255351, “Biochemical characterization of metallo-beta-lactamase VIM-11 from a Pseudomonas aeruginosa clinical strain” (2008)
# Columns and labels:
# Escherichia coli [1] = assay: Antimicrobial activity Escherichia coli DH5alpha harboring bacteriophage T4 plasmid alpha omega by agar macrodilution method; format: functional
# [2] = target: Metallo-beta-lactamase (Escherichia coli) (UniProt Q5U7L7); assay: Activity at Escherichia coli DH5alpha metallo-beta-lactamase VIM-2 assessed as compound hydrolysis per mg of total periplasmic protein by spectrometry
# Escherichia coli [3] = assay: Antimicrobial activity Escherichia coli DH5alpha expressing metallo-beta-lactamase VIM-11 by agar macrodilution method; format: functional
# Pseudomonas aeruginosa = assay: Ratio of Kcat to Km for Pseudomonas aeruginosa COL-1 metallo-beta lactamase VIM-2 over Kcat to Km for Pseudomonas aeruginosa M5109 metallo-beta-lactamase VIM-11
# Escherichia coli [4] = assay: Antimicrobial activity Escherichia coli DH5alpha expressing beta lactamase VIM-2 by agar macrodilution method; format: functional
# Escherichia coli [5] = assay: Activity at Escherichia coli DH5alpha metallo-beta-lactamase VIM-11 assessed as compound hydrolysis per mg of total periplasmic protein by spectrometry
# [6] = tested on: O=C(Cc1cccs1)N[C@@H]1C(=O)N2C(C(=O)O)=C(/C=C/c3ccc([N+](=O)[O-])cc3[N+](=O)[O-])CS[C@H]12; assay: (§1) Activity at Pseudomonas aeruginosa COL-1 metallo-beta lactamase VIM-2 by spectrometry
# [7] = tested on: CO/N=C(\C(=O)N[C@@H]1C(=O)N2C(C(=O)[O-])=C(C[n+]3cccc4c3CCC4)CS[C@H]12)c1csc(N)n1; assay: as §1
# [8] = tested on: CO/N=C(\C(=O)N[C@@H]1C(=O)N2C(C(=O)O)=C(COC(N)=O)CS[C@H]12)c1ccco1; assay: as §1
# [9] = tested on: CO[C@@]1(NC(=O)Cc2cccs2)C(=O)N2C(C(=O)O)=C(COC(N)=O)CS[C@@H]21; assay: as §1
# [10] = tested on: CC1(C)S[C@@H]2[C@H](NC(=O)[C@H](N)c3ccccc3)C(=O)N2[C@H]1C(=O)O; assay: as §1
# [11] = tested on: CO/N=C(\C(=O)N[C@@H]1C(=O)N2C(C(=O)O)=C(COC(C)=O)CS[C@H]12)c1csc(N)n1; assay: as §1
# [12] = tested on: CC(C)(O/N=C(\C(=O)N[C@@H]1C(=O)N2C(C(=O)[O-])=C(C[n+]3ccccc3)CS[C@H]12)c1csc(N)n1)C(=O)O; assay: as §1
# [13] = tested on: CC(=O)OCC1=C(C(=O)O)N2C(=O)[C@@H](NC(=O)Cc3cccs3)[C@H]2SC1; assay: as §1
# [14] = tested on: C[C@@H](O)[C@H]1C(=O)N2C(C(=O)O)=C(S[C@@H]3CN[C@H](C(=O)N(C)C)C3)[C@H](C)[C@H]12; assay: as §1
# [15] = tested on: O=C(Cc1cccs1)N[C@@H]1C(=O)N2C(C(=O)O)=C(/C=C/c3ccc([N+](=O)[O-])cc3[N+](=O)[O-])CS[C@H]12; assay: (§2) Ratio of Kcat to Km for Pseudomonas aeruginosa COL-1 metallo-beta lactamase VIM-2
# [16] = tested on: CO/N=C(\C(=O)N[C@@H]1C(=O)N2C(C(=O)O)=C(COC(N)=O)CS[C@H]12)c1ccco1; assay: as §2
# [17] = tested on: CO[C@@]1(NC(=O)Cc2cccs2)C(=O)N2C(C(=O)O)=C(COC(N)=O)CS[C@@H]21; assay: as §2
# [18] = tested on: CC1(C)S[C@@H]2[C@H](NC(=O)[C@H](N)c3ccccc3)C(=O)N2[C@H]1C(=O)O; assay: as §2
# [19] = tested on: CO/N=C(\C(=O)N[C@@H]1C(=O)N2C(C(=O)O)=C(COC(C)=O)CS[C@H]12)c1csc(N)n1; assay: as §2
# [20] = tested on: CC(C)(O/N=C(\C(=O)N[C@@H]1C(=O)N2C(C(=O)[O-])=C(C[n+]3ccccc3)CS[C@H]12)c1csc(N)n1)C(=O)O; assay: as §2
# [21] = tested on: CC(=O)OCC1=C(C(=O)O)N2C(=O)[C@@H](NC(=O)Cc3cccs3)[C@H]2SC1; assay: as §2
# [22] = tested on: C[C@@H](O)[C@H]1C(=O)N2C(C(=O)O)=C(S[C@@H]3CN[C@H](C(=O)N(C)C)C3)[C@H](C)[C@H]12; assay: as §2
# [23] = tested on: O=C(Cc1cccs1)N[C@@H]1C(=O)N2C(C(=O)O)=C(/C=C/c3ccc([N+](=O)[O-])cc3[N+](=O)[O-])CS[C@H]12; assay: (§3) Activity at Pseudomonas aeruginosa M5109 metallo-beta-lactamase VIM-11 by spectrometry
# [24] = tested on: CO/N=C(\C(=O)N[C@@H]1C(=O)N2C(C(=O)[O-])=C(C[n+]3cccc4c3CCC4)CS[C@H]12)c1csc(N)n1; assay: as §3
# [25] = tested on: CO/N=C(\C(=O)N[C@@H]1C(=O)N2C(C(=O)O)=C(COC(N)=O)CS[C@H]12)c1ccco1; assay: as §3
# [26] = tested on: CO[C@@]1(NC(=O)Cc2cccs2)C(=O)N2C(C(=O)O)=C(COC(N)=O)CS[C@@H]21; assay: as §3
# [27] = tested on: CC1(C)S[C@@H]2[C@H](NC(=O)[C@H](N)c3ccccc3)C(=O)N2[C@H]1C(=O)O; assay: as §3
# [28] = tested on: CO/N=C(\C(=O)N[C@@H]1C(=O)N2C(C(=O)O)=C(COC(C)=O)CS[C@H]12)c1csc(N)n1; assay: as §3
# [29] = tested on: CC(C)(O/N=C(\C(=O)N[C@@H]1C(=O)N2C(C(=O)[O-])=C(C[n+]3ccccc3)CS[C@H]12)c1csc(N)n1)C(=O)O; assay: as §3
# [30] = tested on: CC(=O)OCC1=C(C(=O)O)N2C(=O)[C@@H](NC(=O)Cc3cccs3)[C@H]2SC1; assay: as §3
# [31] = tested on: C[C@@H](O)[C@H]1C(=O)N2C(C(=O)O)=C(S[C@@H]3CN[C@H](C(=O)N(C)C)C3)[C@H](C)[C@H]12; assay: as §3
# [32] = tested on: O=C(Cc1cccs1)N[C@@H]1C(=O)N2C(C(=O)O)=C(/C=C/c3ccc([N+](=O)[O-])cc3[N+](=O)[O-])CS[C@H]12; assay: (§4) Ratio of Kcat to Km for Pseudomonas aeruginosa M5109 metallo-beta-lactamase VIM-11
# [33] = tested on: CO/N=C(\C(=O)N[C@@H]1C(=O)N2C(C(=O)[O-])=C(C[n+]3cccc4c3CCC4)CS[C@H]12)c1csc(N)n1; assay: as §4
# [34] = tested on: CO/N=C(\C(=O)N[C@@H]1C(=O)N2C(C(=O)O)=C(COC(N)=O)CS[C@H]12)c1ccco1; assay: as §4
# [35] = tested on: CO[C@@]1(NC(=O)Cc2cccs2)C(=O)N2C(C(=O)O)=C(COC(N)=O)CS[C@@H]21; assay: as §4
# [36] = tested on: CC1(C)S[C@@H]2[C@H](NC(=O)[C@H](N)c3ccccc3)C(=O)N2[C@H]1C(=O)O; assay: as §4
# [37] = tested on: CO/N=C(\C(=O)N[C@@H]1C(=O)N2C(C(=O)O)=C(COC(C)=O)CS[C@H]12)c1csc(N)n1; assay: as §4
# [38] = tested on: CC(C)(O/N=C(\C(=O)N[C@@H]1C(=O)N2C(C(=O)[O-])=C(C[n+]3ccccc3)CS[C@H]12)c1csc(N)n1)C(=O)O; assay: as §4
# [39] = tested on: CC(=O)OCC1=C(C(=O)O)N2C(=O)[C@@H](NC(=O)Cc3cccs3)[C@H]2SC1; assay: as §4
# [40] = tested on: C[C@@H](O)[C@H]1C(=O)N2C(C(=O)O)=C(S[C@@H]3CN[C@H](C(=O)N(C)C)C3)[C@H](C)[C@H]12; assay: as §4
molecule,measurement,setting,value
CC(C)(O/N=C(\C(=O)N[C@@H]1C(=O)N2C(C(=O)[O-])=C(C[n+]3ccccc3)CS[C@H]12)c1csc(N)n1)C(=O)O [CEFTAZIDIME],MIC,Escherichia coli [1],0.125 µg/mL
same,Activity,[2],5.5 µmol
same,MIC,Escherichia coli [3],8 µg/mL
same,kcat/Km ratio,Pseudomonas aeruginosa,4.06
same,MIC,Escherichia coli [4],8 µg/mL
same,Activity,Escherichia coli [5],0.9 µmol
CO/N=C(\C(=O)N[C@@H]1C(=O)N2C(C(=O)O)=C(COC(C)=O)CS[C@H]12)c1csc(N)n1 [CEFOTAXIME],MIC,Escherichia coli [1],0.03 µg/mL
same,MIC,Escherichia coli [3],4 µg/mL
same,kcat/Km ratio,Pseudomonas aeruginosa,0.78
same,MIC,Escherichia coli [4],8 µg/mL
Metallo-beta-lactamase VIM-2 (Pseudomonas aeruginosa) (from UniProt D1MEN9),Km,[6],13.8 µM
same,kcat,[6],206 s⁻¹
same,Km,[7],171 µM
same,kcat,[7],48.1 s⁻¹
same,Km,[8],5.5 µM
same,kcat,[8],30.5 s⁻¹
same,kcat,[9],10 s⁻¹
same,Km,[10],136 µM
same,Km,[11],13.4 µM
same,kcat,[11],61 s⁻¹
same,Km,[12],88.2 µM
same,Km,[13],6.2 µM
same,kcat,[13],96.4 s⁻¹
same,Km,[14],24.5 µM
same,kcat,[14],3.5 s⁻¹
same,kcat/Km,[15],1.5 ×10⁶ /M/s
same,kcat/Km,[16],5.5 ×10⁶ /M/s
same,kcat/Km,[17],1 ×10⁶ /M/s
same,kcat/Km,[18],2.2 ×10⁶ /M/s
same,kcat/Km,[19],4.6 ×10⁶ /M/s
same,kcat/Km,[20],3.2 ×10⁶ /M/s
same,kcat/Km,[21],1.6 ×10⁶ /M/s
same,kcat/Km,[22],1.4 ×10⁶ /M/s
C[C@@H](O)[C@H]1C(=O)N2C(C(=O)O)=C(S[C@@H]3CN[C@H](C(=O)N(C)C)C3)[C@H](C)[C@H]12 [MEROPENEM],MIC,Escherichia coli [1],0.03 µg/mL
same,MIC,Escherichia coli [3],0.06 µg/mL
same,kcat/Km ratio,Pseudomonas aeruginosa,1
same,MIC,Escherichia coli [4],0.125 µg/mL
O=C(Cc1cccs1)N[C@@H]1C(=O)N2C(C(=O)O)=C(/C=C/c3ccc([N+](=O)[O-])cc3[N+](=O)[O-])CS[C@H]12,kcat/Km ratio,Pseudomonas aeruginosa,1.06
CO/N=C(\C(=O)N[C@@H]1C(=O)N2C(C(=O)[O-])=C(C[n+]3cccc4c3CCC4)CS[C@H]12)c1csc(N)n1 [CEFPIROME],MIC,Escherichia coli [1],0.015 µg/mL
same,MIC,Escherichia coli [3],0.5 µg/mL
same,kcat/Km ratio,Pseudomonas aeruginosa,2
same,MIC,Escherichia coli [4],0.25 µg/mL
CC(=O)OCC1=C(C(=O)O)N2C(=O)[C@@H](NC(=O)Cc3cccs3)[C@H]2SC1 [CEPHALOTHIN],MIC,Escherichia coli [1],4 µg/mL
same,Activity,[2],141 µmol
same,MIC,Escherichia coli [3],64 µg/mL
same,kcat/Km ratio,Pseudomonas aeruginosa,1.12
same,MIC,Escherichia coli [4],64 µg/mL
same,Activity,Escherichia coli [5],5.4 µmol
CC1(C)S[C@@H]2[C@H](NC(=O)[C@H](N)c3ccccc3)C(=O)N2[C@H]1C(=O)O [AMPICILLIN],MIC,Escherichia coli [1],8 µg/mL
same,MIC,Escherichia coli [3],64 µg/mL
same,kcat/Km ratio,Pseudomonas aeruginosa,0.81
same,MIC,Escherichia coli [4],256 µg/mL
CC1(C)S[C@@H]2[C@H](NC(=O)Cc3ccccc3)C(=O)N2[C@H]1C(=O)O [PENICILLIN G],MIC,Escherichia coli [3],128 µg/mL
same,MIC,Escherichia coli [4],128 µg/mL
CO/N=C(\C(=O)N[C@@H]1C(=O)N2C(C(=O)[O-])=C(C[N+]3(C)CCCC3)CS[C@H]12)c1csc(N)n1,MIC,Escherichia coli [3],0.5 µg/mL
same,kcat/Km ratio,Pseudomonas aeruginosa,2.9
same,MIC,Escherichia coli [4],0.5 µg/mL
C[C@@H](O)[C@H]1C(=O)N2C(C(=O)O)=C(SCCNC=N)C[C@H]12 [IMIPENEM ANHYDROUS],Activity,[2],27 µmol
same,MIC,Escherichia coli [3],0.5 µg/mL
same,kcat/Km ratio,Pseudomonas aeruginosa,0.67
same,MIC,Escherichia coli [4],1 µg/mL
same,Activity,Escherichia coli [5],1.3 µmol
CO[C@@]1(NC(=O)Cc2cccs2)C(=O)N2C(C(=O)O)=C(COC(N)=O)CS[C@@H]21 [CEFOXITIN],MIC,Escherichia coli [1],4 µg/mL
same,MIC,Escherichia coli [3],32 µg/mL
same,kcat/Km ratio,Pseudomonas aeruginosa,0.86
same,MIC,Escherichia coli [4],64 µg/mL
Metallo-beta-lactamase VIM-11 (Pseudomonas aeruginosa) (from UniProt C7DTR7),Km,[23],8.2 µM
same,kcat,[23],129 s⁻¹
same,Km,[24],183 µM
same,kcat,[24],102 s⁻¹
same,Km,[25],5.5 µM
same,kcat,[25],27 s⁻¹
same,Km,[26],7.4 µM
same,kcat,[26],6.4 s⁻¹
same,Km,[27],109 µM
same,kcat,[27],190 s⁻¹
same,Km,[28],11.4 µM
same,kcat,[28],41.3 s⁻¹
same,Km,[29],110 µM
same,kcat,[29],14 s⁻¹
same,Km,[30],4.5 µM
same,kcat,[30],81 s⁻¹
same,Km,[31],22.7 µM
same,kcat,[31],3.2 s⁻¹
same,kcat/Km,[32],1.6 ×10⁶ /M/s
same,kcat/Km,[33],5.6 ×10⁶ /M/s
same,kcat/Km,[34],4.9 ×10⁶ /M/s
same,kcat/Km,[35],8.6 ×10⁶ /M/s
same,kcat/Km,[36],1.8 ×10⁶ /M/s
same,kcat/Km,[37],3.6 ×10⁶ /M/s
same,kcat/Km,[38],1.3 ×10⁶ /M/s
same,kcat/Km,[39],1.8 ×10⁶ /M/s
same,kcat/Km,[40],1.4 ×10⁶ /M/s
CO/N=C(\C(=O)N[C@@H]1C(=O)N2C(C(=O)O)=C(COC(N)=O)CS[C@H]12)c1ccco1 [CEFUROXIME],MIC,Escherichia coli [1],4 µg/mL
same,MIC,Escherichia coli [3],64 µg/mL
same,kcat/Km ratio,Pseudomonas aeruginosa,0.89
same,MIC,Escherichia coli [4],128 µg/mL
C[C@H]1[C@H](NC(=O)/C(=N\OC(C)(C)C(=O)O)c2csc(N)n2)C(=O)N1S(=O)(=O)O [AZTREONAM],MIC,Escherichia coli [3],0.5 µg/mL
same,MIC,Escherichia coli [4],0.5 µg/mL
